Laboratory results: patent publication US11035860B2, “Auto-active and intracellular mutant of MET” (Stichting Katholieke Universiteit, priority 2014, dated 2021)
Entries after “also recorded” stand apart in the source; their conditions may differ.

Experiments:
[1] = target: T1, METΔ7-8 (Homo sapiens, UniProt P08581, DEL622-701); test: MET phosphorylation in serum-starved E98 cells (western blot); format: cell-based; details: FIG. 5
T1 construct: the majority of MET protein was in a 180 kDa phosphorylated form, corresponding to the uncleaved truncated preform; endogenous in cells; host or cells: E98 glioma cells, serum-starved
Protocol: (§1) All cell lines were maintained at 37° C. in the presence of 5% CO2. To examine HGF-induced MET activation, E98 and A549 cells were seeded in 6 wells plates. The next day cells were serum-starved overnight. The following day cells were treated for 10 minutes (min) with HGF (50 ng/mL, Miltenyi Biotec, Bergisch Gladbach, Germany).
(§2) Cell lysates were prepared using RIPA buffer containing protease and phosphatase inhibitors (Cell Signaling Technology, CST, Danvers, Mass., USA). RIPA extracts (20-40 μg per lane) and His-tagged proteins from conditioned media (equivalent of 20 μl conditioned medium) were subjected to PAGE on 8-10% polyacrylamide gels and western blotting according to standard procedures. Nitrocellulose blots (Whatman Optitran BA-S85, GE Healthcare, Little Chalfont, UK) were blocked with PBS/Odyssey Blocking Buffer (LI-COR Biosciences, Lincoln, Nebr., USA) (1:1), followed by overnight incubation with primary antibodies at 4° C. […] Biotin groups and primary antibodies were visualized using respectively streptavidin-680 (Molecular Probes, Life Technology) and appropriate secondary antibodies [goat-anti-rabbit-IRDye800 (Rockland Immunochemicals, Gilbertsville, Pa., USA) or Alexa Fluor 680 goat-anti-mouse IgG (Molecular Probes, Life Technologies)]. Blots were scanned on the Odyssey imager (LI-COR Biosciences).

[2] = target: T2, wtMET (Homo sapiens, UniProt P08581); test: MET phosphorylation in serum-starved A549 cells (western blot); format: cell-based; details: FIG. 1B, FIG. 5
T2 construct: in A549 cells the matured, cleaved MET protein was the predominant form; endogenous in cells; host or cells: A549 cells, serum-starved
Protocol: as §1, §2

[3] = tested on: AKT; test: AKT phosphorylation in E98 cells (western blot); format: cell-based, human; details: serum-starved E98 cells; FIG. 5
Protocol: (§3) The E98 cell line and xenograft model and genetic analysis thereof have been described before (Caretti et al., 2011; Claes et al., 2008). E98, U87, A549, HEK-293T and TOV-112D cells were cultured in DMEM+4.5 g/L glucose medium (PAA Laboratories, Pasching, Austria) supplemented with 10% fetal calf serum (FCS) (PAA) and gentamycin (40 μg/mL). All cell lines were maintained at 37° C. in the presence of 5% CO2. To examine HGF-induced MET activation, E98 and A549 cells were seeded in 6 wells plates. The next day cells were serum-starved overnight. The following day cells were treated for 10 minutes (min) with HGF (50 ng/mL, Miltenyi Biotec, Bergisch Gladbach, Germany). In some experiments, prior to HGF incubation cells were incubated with the anti-MET llama VHH G2 (Heukers et al., 2014) or cabozantinib (XL-184, Exelixis, San Francisco, Calif.) for 60 min.
(§4) Cell lysates were prepared using RIPA buffer containing protease and phosphatase inhibitors (Cell Signaling Technology, CST, Danvers, Mass., USA). RIPA extracts (20-40 μg per lane) and His-tagged proteins from conditioned media (equivalent of 20 μl conditioned medium) were subjected to PAGE on 8-10% polyacrylamide gels and western blotting according to standard procedures. […]

[4] = tested on: AKT; test: AKT phosphorylation in A549 cells (western blot); format: cell-based, human; details: FIG. 5
Protocol: as §3, §4

[5] = tested on: lung cancer; details: phase II study, lung cancer (Spigel et al., 2013); cited from earlier work

activation of the minority of processed β-fragment of MET [1]	overall MET phosphorylation levels ([1]; HGF 50 ng/mL 10 min, G2 or cabozantinib 60 min, FIG. 1B)	Substance	MET phosphorylation [2]	levels of pAKT [3]	levels of pAKT [4]	primary end point of prolonged survival [5]
slight activation	did not further increase	HGF: ligand Hepatocyte Growth Factor (HGF, Scatter Factor) of MET	required for MET activation; also recorded: induced MET phosphorylation	neither G2 nor HGF treatment resulted in altered levels	increased levels of pAKT	
		MetMab: antibody; MET activation inhibitor tested in a phase II study for lung cancer				failed to meet the primary end point
